Experimental data published in patent US20220133889A1 (published 2022).

Experiments:
[1] = molecular target: TIM-3 (assay antigen; species and construct not stated) (UniProt Q8TDQ0 22-202); experiment: SPR (BIAcore)
[2] = molecular target: T1, cynomolgus TIM-3 expressed on transfected cells (cynomolgus, UniProt A0A2K5U3G7 22-294); experiment: cell binding (FACS); cyno TIM-3 cells
T1 chain: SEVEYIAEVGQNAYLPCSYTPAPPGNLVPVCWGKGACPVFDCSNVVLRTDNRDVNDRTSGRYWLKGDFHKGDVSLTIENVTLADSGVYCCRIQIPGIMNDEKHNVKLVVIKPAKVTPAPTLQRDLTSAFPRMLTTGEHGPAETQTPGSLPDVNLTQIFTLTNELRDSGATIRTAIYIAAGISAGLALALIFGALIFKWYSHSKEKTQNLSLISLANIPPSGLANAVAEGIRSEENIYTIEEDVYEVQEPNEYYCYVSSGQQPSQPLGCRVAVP

[3] = molecular target: human TIM-3 expressed on cells (UniProt Q8TDQ0 22-301); experiment: cell binding (FACS); TIM-3-transfected 300.19 cells

Kd [1]: 0.042 nM
Kd [2]: 0.68 nM
Kd [3]: 0.16 nM
B1: ABTIM3 (antibody, V domains shown)
VH: QVQLQQPGAELVKPGASVKMSCKASGYTFTSYNMHWIKQTPGQGLEWIGDIYPGNGDTSYNQKFKGKATLTADKSSSTVYMQLSSLTSEDSAVYYCARVGGAFPMDYWGQGTSVTVSS
VL: DIVLTQSPASLAVSLGQRATISCRASESVEYYGTSLMQWYQQKPGQPPKLLIYAASNVESGVPARFSGSGSGTDFSLNIHPVEEDDIAIYFCQQSRKDPSTFGGGTKLEIK
